The assay has as its target CysLTR2-V2(A)6 L129Q (GFP10 fusion) (UniProt Q9NS75). As to the kind of experiment: FRET or BRET; BRET^2 saturation-binding in live HEK293T cells: 5 ng β-arrestin2-RLuc3 and 0-200 ng receptor-GFP10 DNA per well; unstimulated, or WT with 1 μM LTD4 for 10 min at RT; BRET^2 ratio against normalized GFP10 fluorescence, one-site fit with shared Bmax; constitutive activity from Bmax/Kd, normalized to the fully LTD4-stimulated WT receptor.
Chain of UniProt Q9NS75 (Q9NS75 other isoform, or with tags, fused parts or gaps L129Q | L129Q): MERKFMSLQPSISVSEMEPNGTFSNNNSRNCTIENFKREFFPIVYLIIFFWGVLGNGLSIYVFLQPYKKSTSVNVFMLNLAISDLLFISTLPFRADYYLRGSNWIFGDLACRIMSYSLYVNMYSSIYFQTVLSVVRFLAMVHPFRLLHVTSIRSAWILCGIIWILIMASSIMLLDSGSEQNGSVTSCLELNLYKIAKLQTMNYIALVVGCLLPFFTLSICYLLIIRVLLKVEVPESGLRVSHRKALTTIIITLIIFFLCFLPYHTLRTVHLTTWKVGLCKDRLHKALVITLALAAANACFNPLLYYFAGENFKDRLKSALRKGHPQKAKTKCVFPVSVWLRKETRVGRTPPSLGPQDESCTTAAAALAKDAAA

Regarding “β-arrestin2-RLuc3 (from UniProt P32121 1-409) (natural protein)”, the constitutive activity of β-arrestin recruitment (% of LTD4-stimulated WT receptor) stood at 17.8%.
